Source: US20070037211A1 (COUNCIL OF SCIENTIFIC AND INDUSTRIAL RESEARCH CSIR, published 2007)

What was measured:
[1] = target: Hsp16.3, 16 kDa alpha-crystallin like heat shock protein of Mycobacterium tuberculosis, recombinant 6xHis-tagged (Mycobacterium tuberculosis) (UniProt P9WMK1); assay: reverse phage ELISA on coated Hsp16.3, anti-M13-HRP, A405
[2] = target: Hsp16.3, 16 kDa alpha-crystallin like heat shock protein of Mycobacterium tuberculosis, recombinant 6xHis-tagged (Mycobacterium tuberculosis) (UniProt P9WMK1); assay: cell-based or functional assay

Sequence of Hsp16.3, 16 kDa alpha-crystallin like heat shock protein of Mycobacterium tuberculosis, recombinant 6xHis-tagged (Mycobacterium tuberculosis) (P9WMK1 1-144, tags left off): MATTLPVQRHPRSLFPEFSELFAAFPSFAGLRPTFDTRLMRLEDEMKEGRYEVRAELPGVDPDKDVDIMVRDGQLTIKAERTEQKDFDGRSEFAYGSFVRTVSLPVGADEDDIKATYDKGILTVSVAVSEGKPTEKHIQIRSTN

Substance	fold binding over non-specific control BSA [1] [fold]	IC50 of inhibition of chaperon activity of Hsp16.3 (ADH heat aggregation assay, A360) [2] [µM]	aggregation of ADH restored in the presence of Hsp16.3 and 100 µM peptide (A360 at saturation) [2] [%]
M13 phage clone displaying peptide Seq ID 9 (Lys-Met-His-Ala-Thr-Asn-His), from Ph.D.-7 library	3		
synthetic peptide Seq ID 10 (Seq ID 9 with Gly-Gly-Gly-Ser at the C-terminal end), C-terminus amidated		47	70
